In experiment [1] the target is MCP-1RB (monocyte chemoattractant protein-1 receptor B) (human) (UniProt P41597). The experiment is described as follows: cell-based or functional assay.
The target in experiment [2] is MIP-1α/RANTES receptor (Homo sapiens (Human)) (UniProt P32246). The experiment can be described thus: cell-based or functional assay.

Some results are limits rather than exact numbers.

Chain of MCP-1RB (monocyte chemoattractant protein-1 receptor B) (human) (P41597 other isoform, or with tags, fused parts or gaps): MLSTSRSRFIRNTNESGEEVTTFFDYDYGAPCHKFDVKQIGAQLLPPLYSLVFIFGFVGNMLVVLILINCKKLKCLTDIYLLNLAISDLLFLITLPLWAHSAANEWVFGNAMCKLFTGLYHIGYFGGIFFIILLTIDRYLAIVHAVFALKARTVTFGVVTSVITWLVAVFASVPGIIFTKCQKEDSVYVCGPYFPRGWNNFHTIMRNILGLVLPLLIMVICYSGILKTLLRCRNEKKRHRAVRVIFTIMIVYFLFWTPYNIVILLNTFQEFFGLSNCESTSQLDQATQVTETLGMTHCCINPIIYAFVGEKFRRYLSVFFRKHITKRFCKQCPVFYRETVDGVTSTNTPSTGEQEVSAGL
Chain of MIP-1α/RANTES receptor (Homo sapiens (Human)) (P32246 whole entry): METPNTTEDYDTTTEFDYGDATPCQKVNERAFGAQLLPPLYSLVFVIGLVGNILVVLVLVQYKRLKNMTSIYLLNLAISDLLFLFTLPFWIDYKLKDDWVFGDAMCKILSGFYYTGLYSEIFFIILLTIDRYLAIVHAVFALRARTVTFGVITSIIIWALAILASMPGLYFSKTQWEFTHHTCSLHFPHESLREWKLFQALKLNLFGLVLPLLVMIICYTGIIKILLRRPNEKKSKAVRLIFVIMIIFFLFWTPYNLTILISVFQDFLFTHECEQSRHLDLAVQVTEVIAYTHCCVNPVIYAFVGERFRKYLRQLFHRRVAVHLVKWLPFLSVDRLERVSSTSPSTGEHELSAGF

With “Gro-α (from UniProt P09341 35-107) (ligand)”, the IC50(nM), Inhibition of Adenylyl Cyclase in experiment [1] and in experiment [2] was more than 1000 nM throughout.

As for “IL-8 (interleukin-8) (from UniProt P10145 28-99) (ligand)”, in experiment [1], the IC50(nM), Inhibition of Adenylyl Cyclase was more than 1000 nM.

In turn, “MIP-1α (from UniProt P10147 27-92) (ligand)” returned an IC50(nM), Inhibition of Adenylyl Cyclase in experiment [1] of more than 1000 nM.

Substance “MIP-1β (from UniProt P13236 24-92) (ligand)” returned an IC50(nM), Inhibition of Adenylyl Cyclase in experiment [1] of more than 1000 nM.

“RANTES (from UniProt P13501 24-91) (ligand)” returned an IC50(nM), Inhibition of Adenylyl Cyclase in experiment [1] of more than 1000 nM.

The values are drawn from patent publication US7105641.
